The text below walks through data of article PMC2671562, “Structural and Functional Analyses of PAS Domain Interactions of the Clock Proteins Drosophila PERIOD and Mouse PERIOD2” (PLoS Biology, 2009).

B1: dPER[232–599] W482E (domain or fragment)
chain: not shown
notes: also called dPER(W482E)
B2: dPER[232–599] M560D (domain or fragment)
chain: not shown
notes: also called dPER(M560D)
B3: Drosophila PERIOD fragment dPER[232–599], wild-type (domain or fragment)
chain: not shown
notes: GST fusion from pGEX-6P2, GST removed with PreScission protease
B4: mouse PERIOD2 fragment mPER2[170–473] (domain or fragment)
chain: GSSYSMEQVEGITSEYIVKNADMFAVAVSLVSGKILYISNQVASIFHCKKDAFSDAKFVEFLAPHDVSVFHSYTTPYKLPPWSVCSGLDSFTQECMEEKSFFCRVSVGKHHENEIRYQPFRMTPYLVKVQEQQGAESQLCCLLLAERVHSGYEAPRIPPEKRIFTTTHTPNCLFQAVDERAVPLLGYLPQDLIETPVLVQLHPSDRPLMLAIHKKILQAGGQPFDYSPIRFRTRNGEYITLDTSWSSFINPWSRKISFIIGRHKVRVGPLNEDVFAAPPCPEEKTPHPSVQELTEQIHRLLMQPVP
notes: two additional N-terminal residues (Gly168 and Ser169) seen in molecule 1 of the crystal, cloning artefacts; GST fusion from pGEX-6P2, GST removed with PreScission protease; also called crystallized mPER2 fragment
B5: mouse PERIOD2 fragment mPER2[128–473], wild-type (domain or fragment, UniProt O54943 128-473, looked up)
chain: GKASTLATLKYALRSVKQVKANEEYYQLLMSSESQPCSVDVPSYSMEQVEGITSEYIVKNADMFAVAVSLVSGKILYISNQVASIFHCKKDAFSDAKFVEFLAPHDVSVFHSYTTPYKLPPWSVCSGLDSFTQECMEEKSFFCRVSVGKHHENEIRYQPFRMTPYLVKVQEQQGAESQLCCLLLAERVHSGYEAPRIPPEKRIFTTTHTPNCLFQAVDERAVPLLGYLPQDLIETPVLVQLHPSDRPLMLAIHKKILQAGGQPFDYSPIRFRTRNGEYITLDTSWSSFINPWSRKISFIIGRHKVRVGPLNEDVFAAPPCPEEKTPHPSVQELTEQIHRLLMQPVP
notes: also called N-terminally extended PAS domain fragment

This data set deals with the molecule itself. The data set can be described thus: AUC; sedimentation equilibrium, interference optics, 10 °C, 25 mM HEPES pH 7.7, 100 mM NaCl, 2 mM DTE; four starting concentrations from stocks of 0.8–2 mg/ml; dimer to monomers, K D = 1/K A.
A word on the Kd: it is the concentration at which binding is half-saturated. Low readings indicate higher affinity, high ones lower affinity. B1: binding was put at a Kd of 3.7 µM.

Turning to B2, binding was characterised by a dissociation constant (Kd) of 7.14 µM.

Regarding B3, the Kd came out at 0.2 µM.

In the case of B4, the Kd is 1.34 µM.

Protein B5 showed an equilibrium dissociation constant (Kd) of 2.25 µM.
